Source: patent publication US20200129634A1
Non-standard residues stand in square brackets, D forms with d. No end group written: not given here.

Columns and labels:
human serum proteins = assay: cell-based or functional assay
D34 (D38(A13K/A16K)) = assay: RP-HPLC temperature profiling 5-77 C, pH 2, self-association (dimerization/oligomerization) relative to random coil control RC
D84 (D33(A1K)) [1] = assay: RP-HPLC temperature profiling (0.25% B/min gradient), Mix 1, self-association relative to RC
D84 (D33(A1K)) [2] = assay: RP-HPLC temperature profiling (0.25% B/min gradient), Mix 2, self-association relative to RC
D84 (D33(A1K)) [3] = assay: RP-HPLC temperature profiling (0.25% B/min gradient), Mix 3, self-association relative to RC
D84 (D33(A1K)) [4] = assay: RP-HPLC temperature profiling (0.25% B/min gradient), Mix 4, self-association relative to RC
D35 (D39(A13K/A16K)) = assay: RP-HPLC temperature profiling 5-77 C, pH 2, self-association (dimerization/oligomerization) relative to random coil control RC
D36 (D40(A13K/A16K)) = assay: as above

B1: D34 (D38(A13K/A16K)) (peptide)
peptide: [dA][dL][dK][dS][dL][dL][dK][dT][dL][dS][dA][dA][dK][dK][dK][dK][dL][dA][dT][dL][dL][dK][dA][dL][dS][dK]-NH2
modifications: N-terminus assumed
SMILES: CC(C)C[C@@H](NC(=O)[C@@H](C)N)C(=O)N[C@H](CCCCN)C(=O)N[C@H](CO)C(=O)N[C@H](CC(C)C)C(=O)N[C@H](CC(C)C)C(=O)N[C@H](CCCCN)C(=O)N[C@@H](C(=O)N[C@H](CC(C)C)C(=O)N[C@H](CO)C(=O)N[C@H](C)C(=O)N[C@H](C)C(=O)N[C@H](CCCCN)C(=O)N[C@H](CCCCN)C(=O)N[C@H](CCCCN)C(=O)N[C@H](CCCCN)C(=O)N[C@H](CC(C)C)C(=O)N[C@H](C)C(=O)N[C@@H](C(=O)N[C@H](CC(C)C)C(=O)N[C@H](CC(C)C)C(=O)N[C@H](CCCCN)C(=O)N[C@H](C)C(=O)N[C@H](CC(C)C)C(=O)N[C@H](CO)C(=O)N[C@H](CCCCN)C(N)=O)[C@H](C)O)[C@H](C)O
Question: Which MIC against A. baumannii strain 649 in 25% human serum (no serum: 0.2) (human serum proteins) does the source give for B1 here?
Answer: The MIC against A. baumannii strain 649 in 25% human serum (no serum: 0.2) was 1.4 µM.

Question: And the PA (self-association parameter) (D34 (D38(A13K/A16K)))?
Answer: The PA (self-association parameter) was 5.7 min.

B2: D84 (D33(A1K)) (peptide)
peptide: Ac-KLKSLLKTLSKAKAAKLKTLLKALSK-NH2
modifications: not fully specified; also: D-enantiomeric residues, extent not given here
Question: Which results are given for B2?
Answer: PA (self-association parameter) (D84 (D33(A1K)) [1]): 6.8 min; PA (self-association parameter) (D84 (D33(A1K)) [2]): 6.8 min; PA (self-association parameter) (D84 (D33(A1K)) [3]): 6.8 min; PA (self-association parameter) (D84 (D33(A1K)) [4]): 6.8 min

B3: D35 (D39(A13K/A16K)) (peptide)
peptide: [dA][dL][dK][dS][dL][dL][dA][dT][dL][dS][dK][dA][dK][dK][dK][dK][dL][dK][dT][dL][dL][dA][dA][dL][dS][dK]-NH2
modifications: N-terminus assumed
SMILES: CC(C)C[C@@H](NC(=O)[C@@H](C)N)C(=O)N[C@H](CCCCN)C(=O)N[C@H](CO)C(=O)N[C@H](CC(C)C)C(=O)N[C@H](CC(C)C)C(=O)N[C@H](C)C(=O)N[C@@H](C(=O)N[C@H](CC(C)C)C(=O)N[C@H](CO)C(=O)N[C@H](CCCCN)C(=O)N[C@H](C)C(=O)N[C@H](CCCCN)C(=O)N[C@H](CCCCN)C(=O)N[C@H](CCCCN)C(=O)N[C@H](CCCCN)C(=O)N[C@H](CC(C)C)C(=O)N[C@H](CCCCN)C(=O)N[C@@H](C(=O)N[C@H](CC(C)C)C(=O)N[C@H](CC(C)C)C(=O)N[C@H](C)C(=O)N[C@H](C)C(=O)N[C@H](CC(C)C)C(=O)N[C@H](CO)C(=O)N[C@H](CCCCN)C(N)=O)[C@H](C)O)[C@H](C)O
Question: B3 was tested. Which MIC against A. baumannii strain 649 in 25% human serum (no serum: 0.4) (human serum proteins) did it give?
Answer: Its MIC against A. baumannii strain 649 in 25% human serum (no serum: 0.4) is 1.4 µM.

Question: What about the PA (self-association parameter) (D35 (D39(A13K/A16K))) of the same binder?
Answer: Its PA (self-association parameter) is 5.5 min.

B4: D36 (D40(A13K/A16K)) (peptide)
peptide: [dA][dL][dA][dS][dL][dL][dK][dT][dL][dS][dK][dA][dK][dK][dK][dK][dL][dK][dT][dL][dL][dK][dA][dL][dS][dA]-NH2
modifications: N-terminus assumed
SMILES: CC(C)C[C@@H](NC(=O)[C@@H](C)N)C(=O)N[C@H](C)C(=O)N[C@H](CO)C(=O)N[C@H](CC(C)C)C(=O)N[C@H](CC(C)C)C(=O)N[C@H](CCCCN)C(=O)N[C@@H](C(=O)N[C@H](CC(C)C)C(=O)N[C@H](CO)C(=O)N[C@H](CCCCN)C(=O)N[C@H](C)C(=O)N[C@H](CCCCN)C(=O)N[C@H](CCCCN)C(=O)N[C@H](CCCCN)C(=O)N[C@H](CCCCN)C(=O)N[C@H](CC(C)C)C(=O)N[C@H](CCCCN)C(=O)N[C@@H](C(=O)N[C@H](CC(C)C)C(=O)N[C@H](CC(C)C)C(=O)N[C@H](CCCCN)C(=O)N[C@H](C)C(=O)N[C@H](CC(C)C)C(=O)N[C@H](CO)C(=O)N[C@H](C)C(N)=O)[C@H](C)O)[C@H](C)O
Question: How did the MIC against A. baumannii strain 649 in 25% human serum (no serum: 0.4) (human serum proteins) turn out when B4 was run?
Answer: The MIC against A. baumannii strain 649 in 25% human serum (no serum: 0.4) was 0.7 µM.

Question: What about the PA (self-association parameter) (D36 (D40(A13K/A16K))) of the same binder?
Answer: The PA (self-association parameter) was 5.6 min.
